# Measurements as given in doi:10.1101/2024.10.10.617623, “Deep mutational scanning identifies variants of Cas1 and Cas2 that increase spacer acquisition in type II-A CRISPR-Cas systems” (bioRxiv, 2024).
# Numbering of substitutions follows the chain as printed.
# B1: Streptococcus pyogenes type II-A Cas2 (natural protein, UniProt Q99ZW0 1-113, looked up)
# chain: MSYRYMRMILMFDMPTDTAEERKAYRKFRKFLLSEGFIMHQFSIYSKLLLNNTANNAMIGRLREHNPNKGNITLLTVTEKQFARMIYLHGERNNCIANSDERLVFLGEAFDES
# notes: Cas2 of the Streptococcus pyogenes (SF370) type II-A CRISPR-Cas system; source: E. coli Rosetta 2(DE3) BL21, purified (Ni-NTA, SUMO protease, HiTrap Heparin, Superdex 200)
# Tests used:
# [1] = molecular target: T1, Streptococcus pyogenes type II-A Cas1 (wild type) (Streptococcus pyogenes, UniProt Q99ZW1 1-289); experiment: SEC; analytical SEC on Superdex 200 Increase 10/300 GL in SEC buffer (20 mM HEPES pH 7.5, 500 mM NaCl, 5% v/v glycerol, 5 mM DTT) at 4 °C; Cas1 variant 15.0 uM (2 equiv.) mixed with Cas2 7.5 uM, incubated 1 h at 4 °C before injection; fractions on SDS-PAGE, Coomassie; settings: both partners purified
# T1 construct: Cas1 of the Streptococcus pyogenes (SF370) type II-A CRISPR-Cas system; I surmise that one is the wild type; also called wt; source: E. coli Rosetta 2(DE3) BL21, purified (Ni-NTA, SUMO protease, HiTrap Heparin, Superdex 200)
# T1 sequence (looked up): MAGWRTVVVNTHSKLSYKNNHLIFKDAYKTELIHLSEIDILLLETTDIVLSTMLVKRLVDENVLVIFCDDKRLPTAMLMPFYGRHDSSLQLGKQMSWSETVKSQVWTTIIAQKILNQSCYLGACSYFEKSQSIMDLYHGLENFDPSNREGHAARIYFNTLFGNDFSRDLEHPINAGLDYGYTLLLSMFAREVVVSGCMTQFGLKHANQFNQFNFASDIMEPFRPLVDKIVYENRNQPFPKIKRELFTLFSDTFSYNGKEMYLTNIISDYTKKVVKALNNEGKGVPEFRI
# [2] = molecular target: T2, Streptococcus pyogenes type II-A Cas1 R5A (Streptococcus pyogenes, UniProt Q99ZW1 1-289, R5A); experiment: as above; settings: both partners purified
# T2 construct: Cas1 of the Streptococcus pyogenes (SF370) type II-A CRISPR-Cas system with R5A; source: E. coli Rosetta 2(DE3) BL21, purified (Ni-NTA, SUMO protease, HiTrap Heparin, Superdex 200)
# T2 sequence (looked up): T1 sequence (looked up) with R5A
binder,measurement,setting,value
B1,binding result,[1],binds
same,binding result,[2],binds
